Laboratory results as given in PMC7570871, “Evaluation of a New ^177Lu-Labeled Somatostatin Analog for the Treatment of Tumors Expressing Somatostatin Receptor Subtypes 2 and 5” (Molecules, 2020).

Tests used:
in vivo [1] = conditions: mouse, 100 pmol, total radioactivity
Description: The mice were sacrificed 4 h p.i. and accumulation of the radiotracer in the tumors and in all organs of interest was quantified in a γ-counter.

[2] = assay type: physicochemical; conditions: pH 7.4
Description: To a pre-saturated mixture of 500 µL 1-octanol and 500 µL of phosphate-buffered saline (PBS) (pH 7.4), 10 µL of 1 µM of the ^177Lu-labeled conjugates were added. The solution was vortexed for 1 h to reach the equilibrium and then centrifuged (3000 rpm) for 10 min. From each phase, 100 µL of the aliquot was removed and measured in a γ-counter. Each measurement was repeated three times. Care was taken to avoid cross-contamination between the phases. The partition coefficient was calculated as the average of the logarithmic values (n = 3) of the ratio between the radioactivity in the organic and the PBS phase.

in vivo [3] = conditions: female, mouse, total radioactivity
Description: The Veterinary Office (Department of Health) of the Cantonal Basel-Stadt approved the animal experiments (approval no. 2799) in accordance with the Swiss regulations for animal treatment. Female athymic Nude-Foxn1^nu/Foxn1^+ mice (Envigo, The Netherlands), 4–6 weeks old, were injected subcutaneously with 10^7 HEK-SST2 cells in the right shoulder and 10^7 HEK-SST5 cells in the left shoulder, freshly suspended in 100 μL sterile phosphate-buffered saline. The tumors were allowed to grow for 2–3 weeks.
(§1) At the selected time points, the mice were sacrificed and the organs of interest were collected, rinsed, blotted, weighed and counted in a γ-counter. The results are expressed as a percentage of injected activity per gram (%IA/g) obtained by extrapolation from counts of an aliquot taken from the injected solution as a standard.
as §1, with “preselected” for “selected”

human SST2 = target: T1, human SST2 (Homo sapiens, UniProt P30874); design: method as in PMID 32757150; conditions: HEK-SST2 membranes, 125I-SS-14 radioligand; cited from earlier work
T1 construct: expressed in transfected cells; host or cells: HEK cells (HEK-SST2), stably transfected

[4] = test system: dual SST2- and SST5-expressing xenografts; conditions: use of basic amino acids; reference not given; cited from earlier work
[5] = athymic Nude-Foxn1^nu/Foxn1^+, 100 pmol, Pancreas uptake
[6] = athymic Nude-Foxn1^nu/Foxn1^+, 100 pmol, Spleen uptake
[7] = athymic Nude-Foxn1^nu/Foxn1^+, 100 pmol, Stomach uptake
[8] = athymic Nude-Foxn1nu/Foxn1+, 10 pmol, Adrenal uptake
[9] = athymic Nude-Foxn1nu/Foxn1+, 10 pmol, Blood uptake
[10] = athymic Nude-Foxn1nu/Foxn1+, 10 pmol, Bone uptake
[11] = athymic Nude-Foxn1nu/Foxn1+, 10 pmol, Heart uptake
[12] = athymic Nude-Foxn1nu/Foxn1+, 10 pmol, Intestine uptake
[13] = athymic Nude-Foxn1nu/Foxn1+, 10 pmol, Kidney uptake
[14] = athymic Nude-Foxn1nu/Foxn1+, 10 pmol, Liver uptake
[15] = athymic Nude-Foxn1nu/Foxn1+, 10 pmol, Lung uptake
[16] = athymic Nude-Foxn1nu/Foxn1+, 10 pmol, Muscle uptake
[17] = athymic Nude-Foxn1nu/Foxn1+, 10 pmol, Pancreas uptake
[18] = athymic Nude-Foxn1nu/Foxn1+, 10 pmol, SST2-tumor uptake
[19] = athymic Nude-Foxn1nu/Foxn1+, 10 pmol, SST5-tumor uptake
[20] = athymic Nude-Foxn1nu/Foxn1+, 10 pmol, Spleen uptake
[21] = athymic Nude-Foxn1nu/Foxn1+, 10 pmol, Stomach uptake
[22] = athymic Nude-Foxn1nu/Foxn1+, 100 pmol, Adrenal uptake
[23] = athymic Nude-Foxn1nu/Foxn1+, 100 pmol, Blood uptake
[24] = athymic Nude-Foxn1nu/Foxn1+, 100 pmol, Bone (Femur) uptake
[25] = athymic Nude-Foxn1nu/Foxn1+, 100 pmol, Femur uptake
[26] = athymic Nude-Foxn1nu/Foxn1+, 100 pmol, Heart uptake
[27] = athymic Nude-Foxn1nu/Foxn1+, 100 pmol, Intestine uptake
[28] = athymic Nude-Foxn1nu/Foxn1+, 100 pmol, Kidney uptake
[29] = athymic Nude-Foxn1nu/Foxn1+, 100 pmol, Liver uptake
[30] = athymic Nude-Foxn1nu/Foxn1+, 100 pmol, Lung uptake
[31] = athymic Nude-Foxn1nu/Foxn1+, 100 pmol, Muscle uptake
[32] = athymic Nude-Foxn1nu/Foxn1+, 100 pmol, Pancreas uptake
[33] = athymic Nude-Foxn1nu/Foxn1+, 100 pmol, SST2-tumor uptake
[34] = athymic Nude-Foxn1nu/Foxn1+, 100 pmol, SST5-tumor uptake
[35] = athymic Nude-Foxn1nu/Foxn1+, 100 pmol, Spleen uptake
[36] = athymic Nude-Foxn1nu/Foxn1+, 100 pmol, Stomach uptake

T1 sequence (P30874 whole entry): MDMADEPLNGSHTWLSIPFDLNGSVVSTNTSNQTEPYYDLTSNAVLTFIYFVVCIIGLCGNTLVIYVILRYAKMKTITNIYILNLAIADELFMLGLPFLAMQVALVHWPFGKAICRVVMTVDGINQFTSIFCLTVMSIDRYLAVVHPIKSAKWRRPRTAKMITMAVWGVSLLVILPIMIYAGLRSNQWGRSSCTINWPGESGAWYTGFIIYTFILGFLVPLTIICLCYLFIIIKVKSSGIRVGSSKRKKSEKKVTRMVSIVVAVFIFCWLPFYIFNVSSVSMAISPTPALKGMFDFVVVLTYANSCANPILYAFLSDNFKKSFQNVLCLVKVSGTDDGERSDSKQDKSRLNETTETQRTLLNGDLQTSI

## CC(C)[C@@H]1NC(=O)[C@H](CCCCN)NC(=O)[C@@H](Cc2c[nH]c3ccccc23)NC(=O)[C@H](Cc2ccc(O)c(I)c2)NC(=O)[C@@H](NC(=O)[C@@H](Cc2ccc(N)c(I)c2)NC(=O)CN2CCN(CC(=O)O)CCN(CC(=O)O)CCN(CC(=O)O)CC2)CSSC[C@@H](C(=O)N[C@H](C(N)=O)[C@@H](C)O)NC1=O [[^177Lu]Lu-DOTA-ST8950, metal not drawn]
In vivo [1]; Adrenal uptake
  tissue uptake at 4 h: 5.45 ± 2.26 %ID/g
In vivo [1]; Blood uptake
  tissue uptake at 4 h: 0.1 ± 0.02 %ID/g
In vivo [1]; Femur uptake
  tissue uptake at 4 h: 0.56 ± 0.24 %ID/g
In vivo [1]; Heart uptake
  tissue uptake at 4 h: 0.18 ± 0.03 %ID/g
In vivo [1]; Intestine uptake
  tissue uptake at 4 h: 1.35 ± 0.14 %ID/g
In vivo [1]; Kidney uptake
  tissue uptake at 4 h: 8.96 ± 1.39 %ID/g
In vivo [1]; Liver uptake
  tissue uptake at 4 h: 2.28 ± 0.2 %ID/g
In vivo [1]; Lung uptake
  tissue uptake at 4 h: 2.43 ± 1.21 %ID/g
In vivo [1]; Muscle uptake
  tissue uptake at 4 h: 0.15 ± 0.02 %ID/g
In vivo [1]; SST(-)-tumor uptake
  tissue uptake at 4 h: 0.7 ± 0.08 %ID/g
In vivo [1]; Spleen uptake
  tissue uptake at 4 h: 0.84 ± 0.06 %ID/g
In vivo [1]; Stomach uptake
  tissue uptake at 4 h: 4.89 ± 0.94 %ID/g
[2]
  logD: -1.2 ± 0.1
In vivo [3]; athymic Nude-Foxn1^nu/Foxn1^+, 100 pmol, Liver uptake
  tissue uptake at 168 h: 0.54 ± 0.09 %ID/g
In vivo [3]; [5]
  tissue uptake at 24 h: 1.68 ± 0.27 %ID/g
  tissue uptake at 72 h: 0.72 ± 0.14 %ID/g
  tissue uptake at 168 h: 0.37 ± 0.05 %ID/g
In vivo [3]; [6]
  tissue uptake at 24 h: 0.36 ± 0.24 %ID/g
  tissue uptake at 72 h: 0.38 ± 0.12 %ID/g
  tissue uptake at 168 h: 0.27 ± 0.05 %ID/g
In vivo [3]; [7]
  tissue uptake at 24 h: 2.61 ± 0.44 %ID/g
  tissue uptake at 72 h: 1.66 ± 0.49 %ID/g
  tissue uptake at 168 h: 0.99 ± 0.04 %ID/g
In vivo [3]; [8]
  tissue uptake at 1 h: 6.01 ± 1.15 %ID/g
  tissue uptake at 4 h: 5.37 ± 1.17 %ID/g
In vivo [3]; [9]
  tissue uptake at 1 h: 1.3 ± 0.24 %ID/g
  tissue uptake at 4 h: 0.15 ± 0.02 %ID/g
In vivo [3]; [10]
  tissue uptake at 1 h: 1.35 ± 0.25 %ID/g
  tissue uptake at 4 h: 1.12 ± 0.38 %ID/g
In vivo [3]; [11]
  tissue uptake at 1 h: 0.84 ± 0.18 %ID/g
  tissue uptake at 4 h: 0.2 ± 0.04 %ID/g
In vivo [3]; [12]
  tissue uptake at 1 h: 3.08 ± 0.38 %ID/g
  tissue uptake at 4 h: 2.29 ± 0.42 %ID/g
In vivo [3]; [13]
  tissue uptake at 1 h: 11.7 ± 1.79 %ID/g
  tissue uptake at 4 h: 10.8 ± 1.27 %ID/g
In vivo [3]; [14]
  tissue uptake at 1 h: 2.73 ± 0.59 %ID/g
  tissue uptake at 4 h: 2.2 ± 0.27 %ID/g
In vivo [3]; [15]
  tissue uptake at 1 h: 7.12 ± 2.59 %ID/g
  tissue uptake at 4 h: 3.81 ± 0.98 %ID/g
In vivo [3]; [16]
  tissue uptake at 1 h: 0.4 ± 0.07 %ID/g
  tissue uptake at 4 h: 0.13 ± 0.02 %ID/g
In vivo [3]; [17]
  tissue uptake at 1 h: 5.99 ± 1.75 %ID/g
  tissue uptake at 4 h: 3.21 ± 0.5 %ID/g
In vivo [3]; [18]
  tissue uptake at 1 h: 12.1 ± 3.94 %ID/g
  tissue uptake at 4 h: 10.3 ± 2.78 %ID/g
In vivo [3]; [19]
  tissue uptake at 1 h: 1.94 ± 0.46 %ID/g
  tissue uptake at 4 h: 1.52 ± 0.75 %ID/g
In vivo [3]; [20]
  tissue uptake at 1 h: 1.82 ± 0.26 %ID/g
  tissue uptake at 4 h: 0.96 ± 0.18 %ID/g
In vivo [3]; [21]
  tissue uptake at 1 h: 9.68 ± 2.34 %ID/g
  tissue uptake at 4 h: 6.03 ± 1.28 %ID/g
In vivo [3]; [22]
  tissue uptake at 1 h: 4.23 ± 0.68 %ID/g
  tissue uptake at 4 h: 5.21 ± 1.92 %ID/g
  tissue uptake at 24 h: 3.81 ± 1.08 %ID/g
  tissue uptake at 72 h: 2.86 ± 1.3 %ID/g
  tissue uptake at 168 h: 1.84 ± 0.49 %ID/g
In vivo [3]; [23]
  tissue uptake at 1 h: 0.96 ± 0.23 %ID/g
  tissue uptake at 4 h: 0.09 ± 0.03 %ID/g
  tissue uptake at 24 h: 0.02 %ID/g
  tissue uptake at 72 h: 0.01 %ID/g
In vivo [3]; [24]
  tissue uptake at 1 h: 0.74 ± 0.11 %ID/g
  tissue uptake at 4 h: 0.49 ± 0.11 %ID/g
In vivo [3]; [25]
  tissue uptake at 24 h: 0.3 ± 0.05 %ID/g
  tissue uptake at 72 h: 0.19 ± 0.05 %ID/g
  tissue uptake at 168 h: 0.11 ± 0.01 %ID/g
In vivo [3]; [26]
  tissue uptake at 1 h: 0.69 ± 0.09 %ID/g
  tissue uptake at 4 h: 0.17 ± 0.03 %ID/g
  tissue uptake at 24 h: 0.08 ± 0.01 %ID/g
  tissue uptake at 72 h: 0.06 ± 0.02 %ID/g
  tissue uptake at 168 h: 0.04 ± 0.01 %ID/g
In vivo [3]; [27]
  tissue uptake at 1 h: 1.95 ± 0.65 %ID/g
  tissue uptake at 4 h: 1.14 ± 0.42 %ID/g
  tissue uptake at 24 h: 0.51 ± 0.09 %ID/g
  tissue uptake at 72 h: 0.28 ± 0.06 %ID/g
  tissue uptake at 168 h: 0.12 ± 0.02 %ID/g
In vivo [3]; [28]
  tissue uptake at 1 h: ~10 %ID/g
  tissue uptake at 4 h: ~10 %ID/g
  tissue uptake at 24 h: 5.99 ± 0.41 %ID/g
  tissue uptake at 72 h: 3.2 ± 0.84 %ID/g
  tissue uptake at 168 h: 1.42 ± 0.38 %ID/g
In vivo [3]; [29]
  tissue uptake at 1 h: 2.6 ± 0.42 %ID/g
  tissue uptake at 4 h: 2.19 ± 0.48 %ID/g
  tissue uptake at 24 h: 1.23 ± 0.16 %ID/g
  tissue uptake at 72 h: 0.85 ± 0.21 %ID/g
In vivo [3]; [30]
  tissue uptake at 1 h: 3.9 ± 0.84 %ID/g
  tissue uptake at 4 h: 1.69 ± 0.4 %ID/g
  tissue uptake at 24 h: 1.16 ± 0.1 %ID/g
  tissue uptake at 72 h: 0.46 ± 0.08 %ID/g
  tissue uptake at 168 h: 0.23 ± 0.09 %ID/g
In vivo [3]; [31]
  tissue uptake at 1 h: 0.3 ± 0.07 %ID/g
  tissue uptake at 4 h: 0.1 ± 0.02 %ID/g
  tissue uptake at 24 h: 0.06 %ID/g
  tissue uptake at 72 h: 0.04 ± 0.01 %ID/g
  tissue uptake at 168 h: 0.01 %ID/g
In vivo [3]; [32]
  tissue uptake at 1 h: 6.36 ± 1.39 %ID/g
  tissue uptake at 4 h: 4.38 ± 1.02 %ID/g
In vivo [3]; [33]
  tissue uptake at 1 h: 14.2 ± 1.78 %ID/g
  tissue uptake at 4 h: 15.5 ± 3.63 %ID/g
  tissue uptake at 24 h: 9.32 ± 2.02 %ID/g
  tissue uptake at 72 h: 4.22 ± 1.43 %ID/g
  tissue uptake at 168 h: 0.79 ± 0.13 %ID/g
In vivo [3]; [34]
  tissue uptake at 1 h: 1.78 ± 0.35 %ID/g
  tissue uptake at 4 h: 1.87 ± 0.49 %ID/g
  tissue uptake at 24 h: 0.88 ± 0.16 %ID/g
  tissue uptake at 72 h: 0.35 ± 0.08 %ID/g
  tissue uptake at 168 h: 0.08 ± 0.01 %ID/g
In vivo [3]; [35]
  tissue uptake at 1 h: 1.29 ± 0.19 %ID/g
  tissue uptake at 4 h: 0.68 ± 0.11 %ID/g
In vivo [3]; [36]
  tissue uptake at 1 h: 5.63 ± 0.79 %ID/g
  tissue uptake at 4 h: 4.94 ± 0.9 %ID/g

## ^natGa-DOTA-NOC: natGa complex of DOTA-NOC, values from
Human SST2
  IC50: 0.7 nM

## [^177Lu]Lu-DOTA-TATE
[4]
  Kidney uptake reduction with basic amino acids: 40%

## (4-amino-3-iodo)-D-Phe-c[Cys-(3-iodo)-Tyr-D-Trp-Lys-Val-Cys]-Thr-NH2 [ST8950]
Human SST2
  IC50: 0.28 nM
